Assay results as given in patent publication US20130252987A1, “METHOD OF REGULATING PLASMA LIPOPROTEINS” (MCMASTER UNIVERSITY, priority 2010, published 2013).

Legend:
HepG2 cells = experiment: gas chromatography of hepatocyte lipids; type: cell-based, human; conditions: 50 ng/mL, 24 hours
Method: Lipids from HepG2 cell extracts were quantified by gas chromatography (GC) as described in Sahoo et al. (J. Lipid Res. 45:1122-1131). Briefly, cell extracts were incubated with phospholipase C (Sigma, ON) to remove polar head groups, then extracted in the presence of internal standard by the method of Folch et al. (J Biol Chem 226:497-509). Extracted lipids were passed through a sodium sulfate column to remove aqueous contaminants, and derivatized with Sylon BFT (Supelco, ON) to cap reactive hydroxyl and carboxyl groups. Derivatized lipids were dissolved in hexane and injected onto a Zebron ZB-5 column (Phenomenex, Torrance, Calif.) in an Agilent 6890 GC instrument. Lipoprotein Profiles. HepG2 media from 6-10 cm plates was collected and concentrated using an Amicon Centriprep concentrator 50 K and lipoprotein classes separated by fast protein liquid chromatography (FPLC) on a Superose 6 10/30 gel filtration column (Amersham, UK) followed by inline post-column reaction with either Infinity Triglyceride or Infinity Cholesterol reagent (Thermo Scientific, West Palm Beach, Fla.) and measurement of absorbance @ 500 nm.
To quantify the hepatocyte lipid changes induced by human resistin, gas chromatography (GC) analyses of lipids extracted from harvested hepatocytes either untreated or treated with human resistin (50 ng/mL) for 24 hours was performed.

[1] = system: microsomal triglyceride transfer protein (MTP); experiment: MTP protein expression and activity assay; type: cell-based, human; conditions: 50 ng/mL, 24 hours, HepG2 cells
Method: Cell monolayers were washed twice with ice-cold PBS and once with 5 ml of 1 mM Tris-HCl, pH 7.6, 1 mM EGTA, and 1 mM MgCl2 at 4° C. Cells were then incubated for 2 min at room temperature in 5 ml of ice-cold 1 mM Tris-HCl, pH 7.6, 1 mM EGTA, and 1 mM MgCl2. The buffer was aspirated, and 0.5 ml of the same buffer was added to cells. Cells were scraped and collected in ice-cold tubes, vortexed, and centrifuged (SW55 Ti rotor, 50,000 rpm, 10° C., 1 h), and supernatants were used for MTP assay using the MTP fluorometric activity assay kit (Chylos Inc., NY). The triglyceride transfer activity of MTP is presented as % transfer/h/mg protein.
Further tests were conducted to investigate mechanisms by which human resistin stimulated increased hepatocyte expression and secretion of apoB protein. […] It was first determined whether human resistin inhibits apoB degradation through the classic proteosome-dependent degradation pathway by adding the optimal dose of human resistin (50 ng/mL) to the proteosome-dependent inhibitor of apoB degradation, lactacystin, at the optimal dose and time (10 μM, 24 hours). An increase in the cellular expression and secretion of apoB in HepG2 cells with lactacystin was observed, confirming its apoB degradation properties (FIG. 8A.). […]

human PCSK9 = experiment: PCSK9 siRNA studies in HepG2 cells; type: cell-based
Method: Four siRNAs targeting human PCSK9 synthesized by Qiagen (Qiagen, MD) were purchased and tested. The siRNAs were transfected into HepG2 cells at a final concentration of 10 nM, using HiPerFect transfection reagent (Qiagen, MD) at 0.5% final volume. The siRNA that produced the maximum decrease in PCSK9 mRNA and protein expression in HepG2 cells (70% knockdown by Western blot 24 hours post-transfection) was chosen for further experiments. As a negative control, HepG2 cells were transfected with a scrambled siRNA control vector in HiPerFect (both Qiagen, MD). As a positive control, HepG2 cells were transfected with siRNA targeting the constitutively expressed GAPDH gene, using HiPerFect (Qiagen, MD). Western blots against PCSK9 (Caymen Chemicals, MI), LDL receptor (Fitzgerald International, CA) and GAPDH (Sigma, Mo.) were done in control untreated HepG2 cells, cells transfected with the optimal PCSK9 siRNA (Qiagen, MD) and cells treated with human resistin (50 ng/mL) plus PCSK9 siRNA 24 hours post-transfection.
The extent of the role of PCSK9 in the resistin mediated reduction in hepatocyte LDL receptor levels was examined. […] PCSK9 protein levels in hepatocytes were next assessed in response to PCSK9 siRNA administration, with and without resistin. […]

[2] = system: primary mouse hepatocytes from PCSK9 knockout mice; experiment: LDL receptor protein in PCSK9 knockout mouse hepatocytes; type: cell-based; conditions: 50 ng/mL, 24 hours
Method: Animal ethics approval was received for the mouse protocols to follow. Primary mouse hepatocytes from PCSK9 knockout mice (C57Bl/6 background) or their wildtype littermates were isolated by perfusing the liver via the hepatic portal vein with a 5 mM EGTA in Leffert's Buffer (10 mM Hepes; 3 mM KCl, 0.13 M NaCl, 1 mM NaH2PO4, 10 mM D-glucose) followed by a 0.3 mg/ml collagenase in 0.0279% CaCl2. Cells were then filtered through a 70 uM nylon strainer and centrifuged at 760 rpm for 5 min. The cells were then passed through a CHRM gradient (Invitrogen, NC). Viability of cells ranged from 80 to 95%. […] Mouse LDL receptor and PCSK9 protein in cell lysates were measured via immunoblotting, as described above, using the following primary antibodies: mouse LDL receptor (abcam, MA), mouse PCSK9 (abcam, MA) and mouse GAPDH (Cell Signaling, MA). […]
To then more directly quantify the role of PCSK9 in the resistin mediated reduction in hepatocyte LDL receptor levels, hepatocytes isolated and cultured from wild-type mice were treated with resistin, and compared to resistin-treated hepatocytes from PCSK9 knockout mice.

B1: human resistin: recombinant lyophilized purified human resistin (Calbiochem); cysteine-rich cytokine, single 12 kDa band (protein)
chain: KTLCSMEEAINERIQEVAGSLIFRAISSIGLECQSVTSRGDLATCPRGFAVTGCTCGSACGSWDVRAETTCHCQCAGMDWTGARCCRVQP
B1 was tested, and the “increase in cholesteryl ester content” value (HepG2 cells) was 18%, the “increase in free cholesterol content” value (HepG2 cells) was 3% and the “increase in triglyceride content” value (HepG2 cells) was 24%. For the same molecule, the MTP activity [1] was “significant increases”, the “cellular MTP protein expression” value [1] was “significant increases” and the “effect on LDL receptor elevation induced with PCSK9 siRNA” value (human PCSK9; resistin 50 ng/mL plus PCSK9 siRNA) was “reversed”. For the same molecule, the “cellular PCSK9 levels compared with siRNA treatment alone” value (human PCSK9; resistin plus PCSK9 siRNA) was “enhanced” and the “decline in LDL receptor expression compared to untreated hepatocytes” value [2] was 15%.
